{"source": "the nanobody polyreactivity screen of Harvey et al. (2022)", "data": [{"test": "yeast display, Sf9 membrane polyspecificity reagent, FACS + sequencing; frameworks hold sequencing errors", "procedure,_shortened": "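After 36–48 hours of galactose induction, yeast (Saccharomyces cerevisiae BJ5465) displaying a synthetic nanobody library were stained at 4 °C for 1 hour with 10% biotinylated, detergent-solubilized Sf9 membrane reagent. Streptavidin microbeads enriched the stained cells before FACS sorting into low and high (top ~1%) gates on anti-HA and streptavidin fluorescence. Each clone's polyreactivity label reflects its gate of origin.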", "values": [{"sequence": "QVQLVESGGGLVQAGGSLRLSCAASGRIFPLYTMGWYRQAPGKERELVAAITSIGGSTYYADSVKGRFTISRDNAKNTVYLQMNSLKPEDTAVYYCNAQYRPLTSWYKMDYWGQGTQVTVSS", "polyreactivity (PSR sort gate)": "high polyreactivity"}, {"sequence": "QVQLVESGGGLVQAGGSLRLSCAASGRIFPNAMGWYRQAPGKERELVAAISWSGVTTTYADSVKGRFTISRDNAKNTVYLQMNSLKPEDTAVYYCAARYWAYGYWGQGTQVTVSS", "polyreactivity (PSR sort gate)": "high polyreactivity"}, {"sequence": "QVQLVESGGGLVQAGGSLRLSCAASGRIFPPNAMGWSRQAPGKERELVAAITRGGSTYYADSVKGRFTISRDNAKNTVYLQMNSLKPEDTAVYYCATVPWYIKVGQKRNDYWGQGTQVTVSS", "polyreactivity (PSR sort gate)": "high polyreactivity"}, {"sequence": "QVQLVESGGGLVQAGGSLRLSCAASGRIFPPNAMGWYRQAPGKERELVAAITRGGSTNYADSVKGRFTISRDNAKNTVYLQMNSLKPEDTAVYYCAARGLRRQAPFYYWGQGTQVTVSS", "polyreactivity (PSR sort gate)": "high polyreactivity"}, {"sequence": "QVQLVESGGGLVQAGGSLRLSCAASGRIFPPNAMGWYRQAPGKERELVAGITPSGDTTYYADSVKGRFTISRDNAKNTVYIQMNSLKPEDTAVYYCAKDEVYADDRSALFDYWGQGTQVTVSS", "polyreactivity (PSR sort gate)": "low polyreactivity"}, {"sequence": "QVQLVESGGGLVQAGGSLRLSCAASGRIFPPNAMGWYRQAPGKERELVAGITSSGDTTYYADSVKGRFTISRDNAKNTDYLQMNSLKPEDTAVYYCAKDEVYADDRSALFDYWGQGTQVTVSS", "polyreactivity (PSR sort gate)": "low polyreactivity"}, {"sequence": "QVQLVESGGGLVQAGGSLRLSCAASGRIFPPYGMGWYRQAPGKERELVAGITSDGSTNYADSVKGRFTISRDNAKNTVYLQMNSLKPEDTAVYFCAADQGSWYYYPVYYYGGDYWGQGTQVTVSS", "polyreactivity (PSR sort gate)": "low polyreactivity"}, {"sequence": "QVQLVESGGGLVQAGGSLRLSCAASGRIFPRNVMGWYRQAPGKERELVAAISSRGTRTYYADSVKGRFTISRDNAKNTVYLQMYSLKPEDTAVYYCAADGPYEGYDYWGQGTQVTVSS", "polyreactivity (PSR sort gate)": "high polyreactivity"}, {"sequence": "QVQLVESGGGLVQAGGSLRLSCAASGRIFPRYAMGWYTQAPGKERELVAAITTGGSTYADSVKGRFTISRDNAKNTVYLQMNSLKPEDTAVYYCGVDGYVAFSPDRNNYWGQGTQVTVSA", "polyreactivity (PSR sort gate)": "low polyreactivity"}, {"sequence": "QVQLVESGGGLVQAGGSLRLSCAASGRIFPSNAMGWYRQAPGKERELVAAISVSGGSTYYADSVKGRFTISRDNAKNTVYLQMNSLKPEDTAVYYCAVRAWDPYTGKSDYWGQGTQVTVSS", "polyreactivity (PSR sort gate)": "low polyreactivity"}, {"sequence": "QVQLVESGGGLVQAGGSLRLSCAASGRIFPSYAMGSSRQAPGKEREFVAAITWSGTDTYYADSVQGRFTISRDNAKNTVYLQMTSLKPEDTAVYYCAAEEYVEVDTTAYDYWGQGTQVTVSS", "polyreactivity (PSR sort gate)": "low polyreactivity"}, {"sequence": "QVQLVESGGGLVQAGGSLRLSCAASGRIFPSYAMGWYRQAPGKERELVAAISSSSAGTYYADSVKGRFTISRDNAKNTVYLQMNSLKPEDTAVYYCAAASARYRQYKSYYYWGQGTQVTVSS", "polyreactivity (PSR sort gate)": "high polyreactivity"}, {"sequence": "QVQLVESGGGLVQAGGSLRLSCAASGRIFPSYAMGWYRQAPGKERELVATISSGGRTYYADSVKGRFTISRDNAKNTVYLQMNSLKPEDTEVYYCNADRTQDRNPYTYATFDYWGQGTQVTVSS", "polyreactivity (PSR sort gate)": "low polyreactivity"}, {"sequence": "QVQLVESGGGLVQAGGSLRLSCAASGRIFPTNAMGWYRQAPGKERELVAAIPVSGGSTYYADSVKGRFTISRDNAKKTVYLQMNSLKPEDTAVYYCAVDDRASVGSRLDHWGQGTQVTVSS", "polyreactivity (PSR sort gate)": "low polyreactivity"}, {"sequence": "QVQLVESGGGLVQAGGSLRLSCAASGRIFPVNAMGRYRQAPGKERELVATISSGDITNYADSVKGRFTISRDNAKNTVYLQMNSLKPEDTAVYYCNADTSYSEWGSWYYEYDYWGQGTQVTVSS", "polyreactivity (PSR sort gate)": "low polyreactivity"}, {"sequence": "QVQLVESGGGLVQAGGSLRLSCAASGRIFPVYAMGWYRQATGKERELVATISYSGSSTYYADSVKGRFTISRDNAKNTVYLQMNSLKPEDTAVYYCNADAFGPPGVQYYYWGQGTQVTVSS", "polyreactivity (PSR sort gate)": "low polyreactivity"}]}]}
